{"source": "patent US20080248008A1", "about": "“Inhibitors of Protein Kinase a Anchoring” (priority 2004, published 2008)", "key": {"RI (A98S)": {"target": "T1, RI (A98S) (Bos taurus, UniProt P00514, A98S)", "T1 construct": "made in house; host or cells: E. coli BL21 (B121 [sic])", "T1 sequence (P00514 whole entry A98S)": "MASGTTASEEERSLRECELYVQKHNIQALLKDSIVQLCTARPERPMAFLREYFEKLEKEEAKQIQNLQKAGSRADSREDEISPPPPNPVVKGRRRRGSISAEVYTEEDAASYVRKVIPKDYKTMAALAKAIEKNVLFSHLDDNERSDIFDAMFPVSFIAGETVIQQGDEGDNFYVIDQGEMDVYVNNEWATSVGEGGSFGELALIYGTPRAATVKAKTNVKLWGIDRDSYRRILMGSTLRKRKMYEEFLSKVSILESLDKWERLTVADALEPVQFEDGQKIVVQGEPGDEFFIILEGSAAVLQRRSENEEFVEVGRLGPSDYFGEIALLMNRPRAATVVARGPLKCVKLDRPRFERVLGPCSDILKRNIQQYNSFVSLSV", "test": "R-overlay (solid-phase binding) of 32P-labelled RI on membrane-synthesized peptides", "parameters": "species or system bovine", "settings": "for RI binding (RI-32P-overlay, autoradiography): peptides on membrane, qualitative", "procedure": "Autospot Peptide Array. Peptide arrays were synthesized on cellulose paper by using an Autospot Robot ASP222 (ABiMED, Langenfeld, Germany) as described (Frank, R., 1992, Tetrahedron 48, 123-132) or Multipep automated peptide synthesizer (INTAVIS Bioanalytical Instruments AG, Koeln, Germany) as described (Frank, R., 1992, Tetrahedron 48, 123-132).\nR-overlay. R-overlays were conducted as described, using ^32P-labeled recombinant murine RII (Hausken, Z. E., et al., 1998 in Protein Targeting Protocols, ed. Clegg, R. A. (Humana, Totowa, N.J.), Vol. 88, pp. 47-64) or recombinant bovine RI (A98S) or by cold RI-overlay where bound RIα was detected by Western blot. Cold RI-overlay was performed by incubating the membranes with 250 nM RI overnight at 4° C., then the membranes were washed five times in TBST for 5 min. Detection of RI was performed using an anti-RI rabbit polyclonal antibody (Santa Cruz) at a concentration of 0.2 μg/μl for 1 hour at 4° C. Then the membranes were washed five times for 5 minutes in PBS followed by incubation with HRP-conjugated anti-rabbit IgGs (1:5000) for 1 hour at 4° C. The membranes were washed in PBS as described above before detection by Supersignal West Dura Extended Duration Substrate (Pierce).\nDensitometric analysis. The densitometric analysis was performed using Scion Image (www.scioncorp.com) (Scion Coorperation, Mo., USA) or Quantity One version 4.5.0, (BioRad)."}, "PKA-RIIα [1]": {"target": "T2, PKA-RIIα (Homo sapiens, UniProt P13861)", "T2 sequence (P13861 whole entry)": "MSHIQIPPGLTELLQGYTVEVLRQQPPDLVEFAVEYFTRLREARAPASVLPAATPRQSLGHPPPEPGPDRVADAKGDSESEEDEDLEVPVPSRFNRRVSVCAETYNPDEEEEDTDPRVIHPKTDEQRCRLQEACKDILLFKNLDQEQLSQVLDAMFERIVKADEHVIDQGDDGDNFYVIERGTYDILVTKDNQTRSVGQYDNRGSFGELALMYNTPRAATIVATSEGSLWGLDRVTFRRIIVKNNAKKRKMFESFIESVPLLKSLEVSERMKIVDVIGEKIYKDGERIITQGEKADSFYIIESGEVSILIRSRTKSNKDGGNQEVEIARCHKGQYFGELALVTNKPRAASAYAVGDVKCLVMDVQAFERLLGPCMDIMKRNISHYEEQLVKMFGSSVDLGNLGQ", "test": "Immunofluorescence of PKA-RIIα at centrosomes in human T cells", "type": "cell-based", "parameters": "endogenous in cells; host or cells: human peripheral blood CD3+ T cells", "settings": "human peripheral blood T cells", "procedure": "Blots were developed by using Supersignal West Pico substrate (Pierce). For immunofluorescence polyclonal and monoclonal antibodies against RIα (Biogenesis), RIIα (Transduction laboratories) and AKAP450 (A24, Tasken et al., 2001, J. Biol. Chem, 276:21999-22002) were used as primary antibodies. Secondary antibodies (all Molecular Probes) were Alexa-488 conjugated anti-mouse and anti-rabbit IgG (both goat) and Alexa-555 anti-rabbit IgG (goat).\nImmunofluorescence analysis of cells was performed as previously described (Collas, P. et al., 1996, J. Cell Biol. 135, 1715-1725). RI was detected by using an anti-RI monoclonal antibody (Transduction Laboratories) as a primary antibody at a […] and Alexa-488 as a secondary antibody (1:600, Goat anti Mouse IgGs, Molecular Probes). Immunofluorescence was performed on Y1 cells attached to collagen/fibronectin coated coverslips. Mitochondria were stained using MitoTracker Red CMXRos (Molecular Probes) in fresh medium with incubation at 37° C. for 30 min prior to cell fixation. All cells were washed in PBS, fixed with 3% paraformaldehyde and permeabilised using 0.1% Triton X-100. […] Alternatively, fluorescently labeled cells were examined using a Leica TCS SP1 confocal fluorescence microscope (Leica, Heidelberg, Germany) equipped with an Ar (488 nm) and two He/Ne (543 and 633 nm) laser lines. […]"}, "PKA-RIIα [2]": {"target": "T2, PKA-RIIα", "test": "Displacement of PKA-RII from the particulate fraction in T cells", "type": "cell-based", "parameters": "endogenous in cells; host or cells: human peripheral blood CD3+ T cells", "settings": "25 μM or 50 μM", "procedure": "Displacement of PKA-RII from the particulate Fraction in T-cells. Negatively selected CD3^+ T-cells (20×10^6/3 ml/well) were cultured in 6-well plates with 0-50 μM Arg11-SuperAKAPIS (or 0-50 μM M3-Arg11) for 12 hours. Cells were lysed in 250 μl lysis buffer (50 mM Tris pH 7.4, 100 mM NaCl, 5 mM EDTA, 50 mM NaF, 10 mM Na-pyrofosfat, 1 mM Na3VO4, 1 mM PMSF, 0.7% triton X-100) and centrifuged at 14 000×g for 10 min. The sedimented proteins were resuspended in loading dye before being resolved by SDS/PAGE and detected by immunoblotting.\nTo assess the effect of MEME3-Arg11 on anchoring of PKA type II, T cells were treated with MEME3-Arg11 or Arg11-super-AKAP-is (as a positive control) and particulate fractions were isolated, followed by 10% PAGE and blotting onto a PVDF membrane (fraction no. 2-4, FIG. 17 in upper panel) and analysed by immunoblotting using antibodies against PKA-RIIα (FIG. 17, upper panel). The levels of PKA-RIIα in the particulate fractions were measured by densitometry of the autoradiograms (lower panel). The level of PKA-RIIα was set relative to that of the internal standard PKCα."}}, "note": "Entries after “also recorded” stand apart in the source; their conditions may differ. Ends that are not written are not given here."}
{"substance": "LEQYANQLADQIIKEATe [E18e]", "values": [{"measurement": "R-binding of D-amino acid derivatives (RIα and RIIα overlay)", "setting": "RI (A98S); peptidomimetics on membrane", "result": "accepted"}]}
{"substance": "Arg11-super-AKAP-is: RIIα specific peptide, SuperAKAPIS (QIEYVAKQIVDYAIHQA) with eleven arginine residues (also: eleven arginine residues attached (Arg11), place not given here) [reference compound]", "values": [{"measurement": "displacement of PKA-RIIα from centrosomes", "setting": "PKA-RIIα [1]", "result": "specifically displaced PKA-RIIα"}, {"measurement": "reduction of PKA-RIIα in particulate fraction", "setting": "PKA-RIIα [2]", "result": "approximately 80%"}]}
{"substance": "LKQYANQLASQVIKEATE [PDSM]", "values": [{"measurement": "RI binding (RI-32P-overlay, autoradiography)", "setting": "RI (A98S)", "result": "same RI binding affinity as the full length PDSM sequence; also recorded: much higher RIα affinity compare to that of PV-38; also recorded: higher binding to RIα"}]}
{"substance": "DELKQYANQLASQVIKEATE [PDSM consensus sequence]", "values": [{"measurement": "RI binding (RI-32P-overlay, autoradiography)", "setting": "RI (A98S)", "result": "higher affinity for RI than the other R-binding motifs"}]}
